# Assay results from PMC4681580 (Journal of immunology (Baltimore, Md. : 1950), 2015).
# Primed or numbered codes have the meaning given here. No end group written: not given here. FITC′ = fluorescein isothiocyanate
# T1: wild type rat TAP1/TAP2a complex (rat) (UniProt P36370)
# T1 sequence (P36370 whole entry, looked up): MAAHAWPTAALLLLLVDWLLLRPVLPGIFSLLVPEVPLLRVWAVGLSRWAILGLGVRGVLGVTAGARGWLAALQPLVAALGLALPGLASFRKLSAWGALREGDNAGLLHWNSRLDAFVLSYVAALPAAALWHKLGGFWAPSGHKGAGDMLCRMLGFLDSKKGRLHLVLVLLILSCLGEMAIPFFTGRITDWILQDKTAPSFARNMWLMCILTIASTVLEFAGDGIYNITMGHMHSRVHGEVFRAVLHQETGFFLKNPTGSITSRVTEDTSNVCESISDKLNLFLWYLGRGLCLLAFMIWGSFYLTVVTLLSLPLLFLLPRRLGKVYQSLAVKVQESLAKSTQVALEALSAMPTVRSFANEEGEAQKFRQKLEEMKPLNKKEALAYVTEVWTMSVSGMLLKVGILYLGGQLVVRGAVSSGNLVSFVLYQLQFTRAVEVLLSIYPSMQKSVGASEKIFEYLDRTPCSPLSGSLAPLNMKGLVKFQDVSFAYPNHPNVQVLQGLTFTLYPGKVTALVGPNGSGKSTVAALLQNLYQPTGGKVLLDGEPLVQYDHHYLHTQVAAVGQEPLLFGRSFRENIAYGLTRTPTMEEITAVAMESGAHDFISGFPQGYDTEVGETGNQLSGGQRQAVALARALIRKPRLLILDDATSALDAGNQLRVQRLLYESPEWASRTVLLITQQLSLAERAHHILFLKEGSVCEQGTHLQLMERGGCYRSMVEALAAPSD
# T1 sequence (P36372 whole entry, looked up): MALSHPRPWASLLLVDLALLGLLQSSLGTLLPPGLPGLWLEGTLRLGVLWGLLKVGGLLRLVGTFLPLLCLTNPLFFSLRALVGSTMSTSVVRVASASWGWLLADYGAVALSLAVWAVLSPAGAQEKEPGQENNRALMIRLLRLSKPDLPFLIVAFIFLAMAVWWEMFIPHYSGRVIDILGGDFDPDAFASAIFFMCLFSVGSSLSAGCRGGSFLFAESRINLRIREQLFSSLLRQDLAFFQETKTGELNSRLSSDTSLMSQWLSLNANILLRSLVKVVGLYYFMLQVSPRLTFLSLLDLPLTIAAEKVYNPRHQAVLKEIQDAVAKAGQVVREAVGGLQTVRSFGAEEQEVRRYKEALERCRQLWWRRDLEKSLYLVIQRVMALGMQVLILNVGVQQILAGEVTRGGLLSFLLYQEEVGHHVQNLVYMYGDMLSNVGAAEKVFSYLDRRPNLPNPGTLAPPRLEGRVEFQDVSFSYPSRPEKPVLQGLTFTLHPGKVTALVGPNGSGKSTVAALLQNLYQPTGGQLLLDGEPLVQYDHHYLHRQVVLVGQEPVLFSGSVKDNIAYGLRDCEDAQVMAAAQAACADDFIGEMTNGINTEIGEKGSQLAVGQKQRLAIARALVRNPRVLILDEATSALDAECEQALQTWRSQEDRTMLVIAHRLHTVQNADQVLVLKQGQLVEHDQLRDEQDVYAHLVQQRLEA
# T2: rTAP1/TAP2a(E218M/Q262R/S265P/L266F) (rat) (UniProt P36370)
# T2 sequence (P36370 1-725 with E218M Q262R S265P L266F, looked up): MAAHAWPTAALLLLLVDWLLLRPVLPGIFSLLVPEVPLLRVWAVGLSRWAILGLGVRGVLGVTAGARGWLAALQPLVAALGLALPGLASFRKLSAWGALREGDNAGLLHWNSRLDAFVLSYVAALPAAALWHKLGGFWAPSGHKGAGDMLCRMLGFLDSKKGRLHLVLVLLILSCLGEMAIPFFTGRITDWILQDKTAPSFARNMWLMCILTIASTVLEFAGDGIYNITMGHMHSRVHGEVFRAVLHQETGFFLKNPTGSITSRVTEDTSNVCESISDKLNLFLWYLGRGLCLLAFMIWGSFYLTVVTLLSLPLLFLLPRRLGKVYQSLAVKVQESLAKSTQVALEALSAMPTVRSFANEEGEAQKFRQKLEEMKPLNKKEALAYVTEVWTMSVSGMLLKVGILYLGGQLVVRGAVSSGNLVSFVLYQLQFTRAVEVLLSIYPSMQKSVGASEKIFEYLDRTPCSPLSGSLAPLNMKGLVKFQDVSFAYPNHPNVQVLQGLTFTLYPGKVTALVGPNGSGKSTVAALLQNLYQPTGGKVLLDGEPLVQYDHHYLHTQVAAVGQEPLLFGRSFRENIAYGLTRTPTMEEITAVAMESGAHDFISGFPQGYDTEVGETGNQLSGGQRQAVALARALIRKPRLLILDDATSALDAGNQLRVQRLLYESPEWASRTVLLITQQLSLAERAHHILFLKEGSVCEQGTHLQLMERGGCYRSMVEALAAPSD
# T2 sequence (P36372 1-703 with E218M Q262R S265P L266F, looked up): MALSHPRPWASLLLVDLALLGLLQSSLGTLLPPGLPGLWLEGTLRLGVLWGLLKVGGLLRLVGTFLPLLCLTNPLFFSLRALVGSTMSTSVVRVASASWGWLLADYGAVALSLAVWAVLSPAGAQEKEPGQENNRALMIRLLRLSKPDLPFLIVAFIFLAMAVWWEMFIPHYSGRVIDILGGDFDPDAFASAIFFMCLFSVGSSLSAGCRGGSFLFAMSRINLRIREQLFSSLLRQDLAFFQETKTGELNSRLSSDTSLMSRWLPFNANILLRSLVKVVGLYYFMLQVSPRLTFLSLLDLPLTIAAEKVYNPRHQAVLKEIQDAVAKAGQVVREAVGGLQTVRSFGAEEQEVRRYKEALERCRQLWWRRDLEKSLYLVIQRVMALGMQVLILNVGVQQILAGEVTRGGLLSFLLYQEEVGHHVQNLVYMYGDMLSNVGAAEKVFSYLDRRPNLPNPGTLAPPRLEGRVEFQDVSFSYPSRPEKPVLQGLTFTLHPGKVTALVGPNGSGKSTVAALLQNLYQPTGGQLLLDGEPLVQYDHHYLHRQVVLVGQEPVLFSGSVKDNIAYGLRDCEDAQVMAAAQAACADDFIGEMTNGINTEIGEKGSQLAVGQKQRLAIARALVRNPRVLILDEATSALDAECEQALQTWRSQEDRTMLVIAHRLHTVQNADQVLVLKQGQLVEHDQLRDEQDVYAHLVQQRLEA
# T3: rTAP1/TAP2a(E218M) (rat) (UniProt P36370)
# T3 sequence (P36370 1-725 with E218M, looked up): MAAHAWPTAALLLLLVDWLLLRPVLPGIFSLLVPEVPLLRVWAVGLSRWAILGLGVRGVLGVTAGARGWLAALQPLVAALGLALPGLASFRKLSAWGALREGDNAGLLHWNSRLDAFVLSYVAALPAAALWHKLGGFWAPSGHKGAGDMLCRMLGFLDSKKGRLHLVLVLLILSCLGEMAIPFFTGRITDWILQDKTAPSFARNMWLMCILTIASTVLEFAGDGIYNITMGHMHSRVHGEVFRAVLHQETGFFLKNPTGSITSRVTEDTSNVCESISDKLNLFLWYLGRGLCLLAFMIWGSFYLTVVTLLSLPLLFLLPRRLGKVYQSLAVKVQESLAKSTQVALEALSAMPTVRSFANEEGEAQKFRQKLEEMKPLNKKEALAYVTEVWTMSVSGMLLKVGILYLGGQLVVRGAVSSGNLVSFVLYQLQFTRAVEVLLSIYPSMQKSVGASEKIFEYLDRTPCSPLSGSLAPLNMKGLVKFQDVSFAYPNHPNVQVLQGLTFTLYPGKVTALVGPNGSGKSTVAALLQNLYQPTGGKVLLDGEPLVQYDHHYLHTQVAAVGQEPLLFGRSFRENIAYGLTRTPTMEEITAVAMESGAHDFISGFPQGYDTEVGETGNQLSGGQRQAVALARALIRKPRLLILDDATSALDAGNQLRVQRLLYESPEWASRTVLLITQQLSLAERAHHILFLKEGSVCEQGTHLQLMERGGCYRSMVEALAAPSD
# T3 sequence (P36372 1-703 with E218M, looked up): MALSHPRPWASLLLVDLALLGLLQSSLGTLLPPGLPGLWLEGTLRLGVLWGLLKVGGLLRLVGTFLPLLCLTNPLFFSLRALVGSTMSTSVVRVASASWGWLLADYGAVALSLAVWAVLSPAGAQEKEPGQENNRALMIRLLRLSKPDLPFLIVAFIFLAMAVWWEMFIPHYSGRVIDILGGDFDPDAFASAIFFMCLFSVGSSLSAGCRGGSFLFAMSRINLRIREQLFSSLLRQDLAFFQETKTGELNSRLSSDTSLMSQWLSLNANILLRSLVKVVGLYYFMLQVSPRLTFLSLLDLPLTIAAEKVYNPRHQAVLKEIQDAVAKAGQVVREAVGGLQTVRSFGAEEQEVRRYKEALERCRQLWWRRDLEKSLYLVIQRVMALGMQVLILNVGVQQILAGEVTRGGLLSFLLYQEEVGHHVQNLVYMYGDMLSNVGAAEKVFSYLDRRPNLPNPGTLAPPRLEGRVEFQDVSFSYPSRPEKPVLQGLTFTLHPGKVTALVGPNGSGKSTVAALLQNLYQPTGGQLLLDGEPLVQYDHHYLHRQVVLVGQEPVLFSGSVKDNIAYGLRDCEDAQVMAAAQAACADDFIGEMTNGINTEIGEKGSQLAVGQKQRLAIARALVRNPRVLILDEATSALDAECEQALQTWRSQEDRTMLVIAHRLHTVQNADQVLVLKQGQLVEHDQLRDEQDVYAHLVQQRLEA
# How the values were obtained:
# Assay in all cases: cross-linking
# [1] = target: T1, wild type rat TAP1/TAP2a complex (rat)
# [2] = target: T2, rTAP1/TAP2a(E218M/Q262R/S265P/L266F) (rat)
# [3] = target: T3, rTAP1/TAP2a(E218M) (rat)
IC50 [1] [nM],Kd [2] [nM],Kd [1] [nM],Kd [3] [nM],Binder
> 2000,–,–,–,"TVDNKTAYR […, unlabeled competitor peptide]"
–,107,417,339,"TVDNK(FITC′)CAYV [TVDNK*CAYV (TC6V), FITC-labeled]"
–,–,187,–,"TVDNK(FITC′)CAYR [TVDNK*CAYR (TC6R), FITC-labeled]"
